From patent US20250186614A1, “COMPACT DRUG RESPONSIVE DOMAINS FOR REGULATION OF FUNCTION/ABUNDANCE AND DELIVERY OF POLYPEPTIDE PAYLOADS” (OBSIDIAN THERAPEUTICS, INC., priority 2022, published 2025)
Substitutions are numbered along the chain they refer to. In names and notes the source's numbering stands.

B1: FKBP-160 (protein)
chain: HCPIKSRKGDVLHAHYTGKLEDGTEFDSSLPRNQPFVFSLGTGERIKGWDQGLLGMCEGEKRKLVIPSELGYGERGWPPKIPGGATLVFEVELLKIER
modifications: Description of sequence: Construct Name: FKBP-160; Mutation(s): Q72R Q84E A117W V85R DRD M54A
B2: FKBP-191: FKBP13 DRD-AcGFP construct of Table 10 (protein)
chain: B1 chain with G9S, A14M
modifications: Description of sequence: Construct Name: FKBP-191; Mutation(s): Q72R Q84E A117W V85R DRD G49S
B3: FKBP-192: FKBP13 DRD-AcGFP construct of Table 10 (protein)
chain: B1 chain with A14M, P35L
modifications: Description of sequence: Construct Name: FKBP-192; Mutation(s): Q72R Q84E A117W V85R DRD P75L
B4: FKBP-193 (protein)
chain: B1 chain with A14M, D50A
modifications: Description of sequence: Construct Name: FKBP-193; Mutation(s): Q72R Q84E A117W V85R DRD D90A
B5: FKBP-194 (protein)
chain: B1 chain with A14M, L64V
modifications: Description of sequence: Construct Name: FKBP-194; Mutation(s): Q72R Q84E A117W V85R DRD L104V
B6: FKBP-196 (protein)
chain: B1 chain with A14M, I96V
modifications: Description of sequence: Construct Name: FKBP-196; Mutation(s): Q72R Q84E A117W V85R DRD I136V
B7: FKBP-161 (protein)
chain: B1 chain with A14S
modifications: Description of sequence: Construct Name: FKBP-161; Mutation(s): Q72R Q84E A117W DRD M54S V85R
B8: FKBP-198: FKBP13 DRD-AcGFP construct of Table 10 (protein)
chain: B1 chain with A14M, K61W
modifications: Description of sequence: Construct Name: FKBP-198; Mutation(s): Q72R Q84E A117W V85R DRD K101W
B9: FKBP-199: FKBP13 DRD-AcGFP construct of Table 10 (protein)
chain: B1 chain with A14M, E58L
modifications: Description of sequence: Construct Name: FKBP-199; Mutation(s): Q72R Q84E A117W V85R DRD E98L
B10: FKBP-200: FKBP13 DRD-AcGFP construct of Table 10 (protein)
chain: B1 chain with A14M, D22S
modifications: Description of sequence: Construct Name: FKBP-200; Mutation(s): Q72R Q84E A117W V85R DRD D62S
B11: FKBP-173 (protein)
chain: B1 chain with R45V, L93G
modifications: Description of sequence: Construct Name: FKBP-173; Mutation(s): Q72R Q84E A117W DRD M54A L133G
B12: FKBP-174 (protein)
chain: B1 chain with S6G, R45V, V91G
modifications: Description of sequence: Construct Name: FKBP-174; Mutation(s): Q72R Q84E A117W DRD M54A S36G V131G
B13: FKBP-175 (protein)
chain: B1 chain with D10A, T17I, R45V, I96L
modifications: Description of sequence: Construct Name: FKBP-175; Mutation(s): Q72R Q84E A117W DRD M54A D50L T57I I136L
B14: FKBP-176 (protein)
chain: B1 chain with R45V, G76E
modifications: Description of sequence: Construct Name: FKBP-176; Mutation(s): Q72R Q84E A117W DRD M54A G116E
B15: FKBP-179 (protein)
chain: B1 chain with H13G, R32L, R45V
modifications: Description of sequence: Construct Name: FKBP-179; Mutation(s): Q72R Q84E A117W DRD M54A H53G R72L
B16: FKBP-180 (protein)
chain: B1 chain with R45V, F89T
modifications: Description of sequence: Construct Name: FKBP-180; Mutation(s): Q72R Q84E A117W DRD M54A F129T
B17: FKBP-183 (protein)
chain: B1 chain with L93G
modifications: Description of sequence: Construct Name: FKBP-183; Mutation(s): Q72R Q84E A117W V85R DRD M54A L133G
B18: FKBP-184 (protein)
chain: B1 chain with S6G, V91G
modifications: Description of sequence: Construct Name: FKBP-184; Mutation(s): Q72R Q84E A117W V85R DRD M54A S36G V131G
B19: FKBP-190 (protein)
chain: B1 chain with F89T
modifications: Description of sequence: Construct Name: FKBP-190; Mutation(s): Q72R Q84E A117W V85R DRD M54A F129T

Experiment: Example 4: dose response of FKBP constructs 160-255, Ec50, Ec90 and fold change (raw and normalized to mCherry)
Assay type: cell-based
Settings: FKBP constructs 160-255; not normalized; read-out: EC90
Experimental: Additional experiments were performed for constructs FKBP-160-292.

Molecule | EC90
B1 | 42.2 nM
B2 | 367 nM
B3 | 230 nM
B4 | 13000 nM
B5 | 102 nM
B6 | 115 nM
B7 | 512 nM
B8 | 253 nM
B9 | 71.7 nM
B10 | 160 nM

Same assay, conditions: fold change during initial analysis

Molecule | FC (fold change)
B11 | 4
B12 | 0.9
B13 | 7.25
B14 | 6.8
B15 | 3.1
B16 | 1.2
B17 | 4
B18 | 1
B1 | 25.7
B19 | 0.9
B2 | 50.6
B3 | 55.0
B4 | 37.8
B5 | 24.8
B6 | 34.7
B7 | 32.3
B8 | 54.3
B9 | 27.1
B10 | 33.9

Same assay, conditions: normalized to mCherry; read-out: EC90 (Norm)

Molecule | EC90
B1 | 48.2 nM
B2 | 391 nM
B3 | 228 nM
B4 | 15000 nM
B5 | 122 nM
B6 | 113 nM
B7 | 541 nM
B8 | 274 nM
B9 | 67.5 nM
B10 | 150 nM
